Experimental data reported in US20160297884A1 (Pfizer, published 2016).
Numbering of substitutions follows the chain as printed.

T1: Human BCMA (human, UniProt Q02223 1-54, limits assumed)
T1 construct: Soluble analyte in SPR; construct not described; also called huBCMA; B-cell maturation antigen
T1 sequence (looked up): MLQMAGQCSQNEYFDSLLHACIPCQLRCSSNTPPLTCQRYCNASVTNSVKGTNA

B1: L1.GDF/L3.KW/H3.AL (antibody, V domains shown)
VH: EVQLLESGGGLVQPGGSLRLSCAASGFTFGSYAMTWVRQAPGKGLEWVSAISGSGGNTFYADSVKGRFTISRDNSKNTLYLQMNSLRAEDTAVYYCARVSPIAALMDYWGQGTLVTVSS
VL: EIVLTQSPGTLSLSPGERATLSCRASQSVGDFYLAWYQQKPGQAPRLLIYGASSRATGIPDRFSGSGSGTDFTLTISRLEPEDFAVYYCKHYGWPPSFTFGQGTKVEIK
notes: IgG
B2: L1.GDF/L3.PY/H3.AQ (antibody, V domains shown)
VH: B1 VH with L105Q
VL: B1 VL with K90Q, G93P, W94Y
notes: IgG
B3: L3.PY/L1.PS/H3.TAQ (antibody, V domains shown)
VH: B1 VH with A97T, L105Q
VL: B1 VL with G30S, D31S, F32S, L34P, A35S, K90Q, G93P, W94Y
notes: IgG
B4: L1.GDF/L3.NY/H3.AL (antibody, V domains shown)
VH: B1 VH
VL: B1 VL with K90Q, G93N, W94Y
notes: IgG
B5: L1.LGF/L3.KW/H3.AP (antibody, V domains shown)
VH: B1 VH with L105P
VL: B1 VL with V29L, D31S
notes: IgG
B6: L1.LGF/L3.KW/H3.AL (antibody, V domains shown)
VH: B1 VH
VL: B1 VL with V29L, D31S
notes: IgG
B7: L1.GDF/L3.NY/H3.AQ (antibody, V domains shown)
VH: B1 VH with L105Q
VL: B1 VL with K90Q, G93N, W94Y
notes: IgG
B8: L1.GDF/L3.NY/H3.AP (antibody, V domains shown)
VH: B1 VH with L105P
VL: B1 VL with K90Q, G93N, W94Y
notes: IgG
B9: L3.PY/L3.KY/P6E01 (antibody, V domains shown)
VH: B1 VH with A104S, L105G
VL: B1 VL with G30S, D31S, F32S, H91Y, G93P, W94Y
notes: IgG
B10: L1.GDF/L3.NY/P6E01 (antibody, V domains shown)
VH: B1 VH with A104S, L105G
VL: B1 VL with K90Q, G93N, W94Y
notes: IgG
B11: L3.PY/L1.PS/H3.AQ (antibody, V domains shown)
VH: B1 VH with L105Q
VL: B1 VL with G30S, D31S, F32S, L34P, A35S, K90Q, G93P, W94Y
notes: IgG
B12: L3.PY/L3.KF/P6E01 (antibody, V domains shown)
VH: B1 VH with A104S, L105G
VL: B1 VL with G30S, D31S, F32S, H91F, G93P, W94Y
notes: IgG
B13: L1.GDF/L3.KW/H3.AP (antibody, V domains shown)
VH: B1 VH with L105P
VL: B1 VL
notes: IgG
B14: L1.LGF/L3.NY/H3.AL (antibody, V domains shown)
VH: B1 VH
VL: B1 VL with V29L, D31S, K90Q, G93N, W94Y
notes: IgG
B15: L3.PY/L1.PS/H3.YA (antibody, V domains shown)
VH: B1 VH with A103Y, L105G
VL: B1 VL with G30S, D31S, F32S, L34P, A35S, K90Q, G93P, W94Y
notes: IgG
B16: L1.LGF/L3.KW/H3.AQ (antibody, V domains shown)
VH: B1 VH with L105Q
VL: B1 VL with V29L, D31S
notes: IgG
B17: L1.LGF/L3.KW/P6E01 (antibody, V domains shown)
VH: B1 VH with A104S, L105G
VL: B1 VL with V29L, D31S
notes: IgG
B18: L1.GDF/L3.KW/H3.AQ (antibody, V domains shown)
VH: B1 VH with L105Q
VL: B1 VL
notes: IgG
B19: L3.PY/L1.PS/H3.AE (antibody, V domains shown)
VH: B1 VH with L105E
VL: B1 VL with G30S, D31S, F32S, L34P, A35S, K90Q, G93P, W94Y
notes: IgG
B20: L3.PY/L1.PS/P6E01 (antibody, V domains shown)
VH: B1 VH with A104S, L105G
VL: B1 VL with G30S, D31S, F32S, L34P, A35S, K90Q, G93P, W94Y
notes: IgG
B21: P6E01/P6E01 (antibody, V domains shown)
VH: B1 VH with A104S, L105G
VL: not shown
notes: IgG
B22: P6E01/H3.AQ (antibody, V domains shown)
VH: B1 VH with L105Q
VL: not shown
notes: IgG

How the values were obtained:
Human BCMA [1] = target: T1, Human BCMA; assay: SPR, IgG immobilised, 25 C
Experimental: (§1) All experiments were performed on a Bio-Rad Proteon XPR36 surface Plasmon resonance biosensor (Bio-Rad, Hercules, Calif.). […] The analysis temperature for the immobilization was 25° C. and the running buffer was HBS-T+(10 mM HEPES, 150 mM NaCl, 0.05% Tween-20, pH 7.4). Channels were activated in the analyte (horizontal) direction by injecting a mixture of 1 mM ECD and 0.25 mM NHS for 3 minutes at a flow rate of 30 μL/min. IgGs were immobilized on the activated spots by injecting them in the ligand (vertical) direction at 20 μg/mL in 10 mM Acetate pH 4.5 buffer for 1.5 minutes at […]. The activated surfaces were blocked by injecting 1M ethanolamine, pH 8.5 in the analyte direction for 3 minutes at 30 μL/min.
(§2) The analysis temperature for the BCMA binding analysis was 37° C. or 25° C. in a running buffer of HBS-T+, supplemented with 1 mg/mL BSA. A kinetic titration method was employed for the interaction analysis as described in Abdiche, et al. Human BCMA (huBCMA) or cynomolgus monkey BCMA (cyBCMA) analyte was injected in the analyte direction using a series of injections from low to high concentration. The concentrations used were 0.08 nM, 0.4 nM, 2 nM, 10 nM and 50 nM (a 5-membered series, with a 5-fold dilution factor and top concentration of 50 nM). The association time for a given analyte dilution was two minutes. Immediately after the 50 nM BCMA injection, dissociation was monitored for 2 hours.
(§3) The sensorgrams were double-referenced and fit to a 1:1 Langmuir with mass transport kinetic titration model in BIAevaluation Software version 4.1.1 (GE Lifesciences, Piscataway, N.J.).

cynomolgus monkey BCMA [2] = target: T2, cynomolgus monkey BCMA (cynomolgus monkey, UniProt A0A2K5UD97 1-53); assay: SPR, IgG immobilised, 25 C
T2 construct: Soluble analyte in SPR; construct not described; also called cyBCMA; Cyno BCMA
T2 sequence (A0A2K5UD97 entry or part of it): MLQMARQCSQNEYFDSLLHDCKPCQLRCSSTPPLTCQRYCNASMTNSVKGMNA
Experimental: as §1, §2, §3

Human BCMA [3] = target: T1, Human BCMA; assay: SPR, IgG immobilised, 37 C
Summary of the method: (§4)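 Kinetic titration: huBCMA/cyBCMA 0.08–50 nM (5-fold steps), 2 min association per step, 2 h dissociation after top dose; HBS-T+ + 1 mg/mL BSA, 25 or 37° C; double-referenced, fit 1:1 Langmuir with mass transport.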

cynomolgus monkey BCMA [4] = target: T2, cynomolgus monkey BCMA; assay: SPR, IgG immobilised, 37 C
Summary of the method: as §4

Row | Binder | Kd (Human BCMA [1]) [nM] | T ½ (Human BCMA [1]) [min] | koff (Human BCMA [1]) [s⁻¹] | kon (Human BCMA [1]) [M⁻¹ s⁻¹] | Kd (cynomolgus monkey BCMA [2]) [nM] | T ½ (cynomolgus monkey BCMA [2]) [min] | koff (cynomolgus monkey BCMA [2]) [s⁻¹] | kon (cynomolgus monkey BCMA [2]) [M⁻¹ s⁻¹] | Kd (Human BCMA [3]) [nM] | T ½ (Human BCMA [3]) [min] | koff (Human BCMA [3]) [s⁻¹] | kon (Human BCMA [3]) [M⁻¹ s⁻¹] | Kd (cynomolgus monkey BCMA [4]) [nM] | T ½ (cynomolgus monkey BCMA [4]) [min] | koff (cynomolgus monkey BCMA [4]) [s⁻¹] | kon (cynomolgus monkey BCMA [4]) [M⁻¹ s⁻¹]
1 | B1 | 8.76 | 2.96 | 0.0039 | 445000 | 56.7 | 0.6 | 0.018 | 318000 | – | – | – | – | – | – | – | –
2 | B2 | 9.49 | 0.86 | 0.0135 | 1.42e+06 | 10.7 | 0.7 | 0.0166 | 1.55e+06 | – | – | – | – | – | – | – | –
3 | B3 | – | – | – | – | – | – | – | – | 0.76 | 4.7 | 0.00246 | 3.25e+06 | 2.14 | 2.09 | 0.00552 | 2.58e+06
4 | B4 | 4.44 | 2.87 | 0.00403 | 907000 | 24.3 | 0.5 | 0.0219 | 900000 | – | – | – | – | – | – | – | –
5 | B5 | 2.44 | 5.1 | 0.00227 | 928000 | 27.8 | 0.7 | 0.0154 | 554000 | – | – | – | – | – | – | – | –
6 | B6 | 2.87 | 9.4 | 0.00123 | 428000 | 41.8 | 1 | 0.0121 | 290000 | – | – | – | – | – | – | – | –
7 | B7 | 0.73 | 16 | 0.000722 | 984000 | 1.2 | 8.5 | 0.00136 | 1.18e+06 | – | – | – | – | – | – | – | –
8 | B8 | 1 | 8.21 | 0.00141 | 1.41e+06 | 5.2 | 1.6 | 0.00702 | 1.36e+06 | – | – | – | – | – | – | – | –
9 | B9 | – | – | – | – | – | – | – | – | 0.34 | 10.7 | 0.00109 | 3.18e+06 | 2.21 | 2.3 | 0.00502 | 2.27e+06
10 | B10 | 3.7 | 1.95 | 0.00592 | 1.6e+06 | 6.4 | 1.5 | 0.00767 | 1.2e+06 | – | – | – | – | – | – | – | –
11 | B11 | – | – | – | – | – | – | – | – | 0.55 | 6.46 | 0.00179 | 3.26e+06 | 1.72 | 2.67 | 0.00433 | 2.52e+06
12 | B12 | – | – | – | – | – | – | – | – | 0.72 | 5.56 | 0.00208 | 2.88e+06 | 3.48 | 1.39 | 0.0083 | 2.39e+06
13 | B13 | 3.93 | 2.51 | 0.00461 | 1.17e+06 | 24.9 | 0.6 | 0.0203 | 814000 | – | – | – | – | – | – | – | –
14 | B14 | 1.27 | 11.9 | 0.00097 | 763000 | 23.2 | 0.8 | 0.0148 | 635000 | – | – | – | – | – | – | – | –
15 | B15 | – | – | – | – | – | – | – | – | 2.95 | 1.28 | 0.00905 | 3.07e+06 | 5.65 | 1.16 | 0.00998 | 1.77e+06
16 | B16 | 1.82 | 12.1 | 0.000956 | 524000 | 6.7 | 3.3 | 0.00355 | 527000 | – | – | – | – | – | – | – | –
17 | B17 | 9.08 | 1.53 | 0.00755 | 831000 | 42.8 | 0.6 | 0.0195 | 455000 | – | – | – | – | – | – | – | –
18 | B18 | 4.37 | 3.32 | 0.00348 | 797000 | 7 | 2 | 0.00565 | 802000 | – | – | – | – | – | – | – | –
19 | B19 | – | – | – | – | – | – | – | – | 0.46 | 7.93 | 0.00146 | 3.14e+06 | 1.68 | 2.8 | 0.00413 | 2.46e+06
20 | B20 | – | – | – | – | – | – | – | – | 0.45 | 10.2 | 0.00113 | 2.49e+06 | 2.79 | 1.91 | 0.00606 | 2.17e+06
21 | B21 | 4 | 2.8 | – | – | – | – | – | – | – | – | – | – | – | – | – | –
22 | B22 | 0.41 | 33.5 | – | – | – | – | – | – | – | – | – | – | – | – | – | –
